Measurements published in patent US20100055104A1 (NEUTEC PHARMA, published 2010).
Ends that are not written are not given here.

Key:
[1] = biological target: T1, recombinant human hsp90α (human, UniProt P07900 1-732, limits assumed); assay: Biacore SPR; human hsp90α amine-coupled to CM-5 chip, Mycograb injected; 1:1 Langmuir fit
T1 construct: also called human hsp90a; human hsp 90 alpha

[2] = biological target: T2, recombinant hsp90 from Candida albicans (Candida albicans, UniProt P46598 1-707); assay: Biacore SPR; Candida hsp90 amine-coupled to CM-5 chip, Mycograb injected; 1:1 Langmuir fit
T2 construct: also called Candida hsp90; Candida albicans hsp90

[3] = biological target: T3, biotinylated LKVIRK peptide (SEQ ID NO: 4) (also: biotinylated, site not given here); assay: Biacore SPR; biotinylated peptide captured on SA chip, Mycograb injected; 1:1 Langmuir fit
T3 construct: Captured non-covalently on a Sensor Chip SA; Any spacer between the biotin and the peptide is not described; also called immobilised peptide
T3 peptide: LKVIRK

T2 sequence (P46598 whole entry): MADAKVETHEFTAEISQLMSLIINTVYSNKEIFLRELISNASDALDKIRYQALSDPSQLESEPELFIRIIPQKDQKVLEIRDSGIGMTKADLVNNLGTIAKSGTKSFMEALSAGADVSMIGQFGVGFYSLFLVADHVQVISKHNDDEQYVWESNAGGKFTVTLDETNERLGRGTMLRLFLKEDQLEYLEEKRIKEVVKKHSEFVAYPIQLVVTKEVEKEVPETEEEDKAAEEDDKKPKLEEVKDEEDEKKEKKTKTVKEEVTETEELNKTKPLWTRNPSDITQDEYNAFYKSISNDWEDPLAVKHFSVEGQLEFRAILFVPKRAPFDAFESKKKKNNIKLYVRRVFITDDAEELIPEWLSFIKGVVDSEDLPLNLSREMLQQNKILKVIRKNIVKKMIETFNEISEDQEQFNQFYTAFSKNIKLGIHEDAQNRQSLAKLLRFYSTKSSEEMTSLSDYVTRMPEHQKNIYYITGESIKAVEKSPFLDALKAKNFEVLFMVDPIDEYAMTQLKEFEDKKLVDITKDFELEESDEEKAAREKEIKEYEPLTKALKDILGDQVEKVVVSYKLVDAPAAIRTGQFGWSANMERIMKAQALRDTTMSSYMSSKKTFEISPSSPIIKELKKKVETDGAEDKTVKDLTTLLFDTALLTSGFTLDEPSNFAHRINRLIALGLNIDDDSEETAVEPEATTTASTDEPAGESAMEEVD

B1: Mycograb® (antibody component, SEQ ID NO: 1) (antibody)
chain: HMAEVQLVESGAEVKKPGESLRISCKGSGCIISSYWISWVRQMPGKGLEWMGKIDPGDSYINYSPSFQGHVTISADKSINTAYLQWNSLKASDTAMYYCARGGRDFGDSFDYWGQGTLVTVSSGGGGSGGGGSGGGGSDVVMTQSPSFLSAFVGDRITITCRASSGISRYLAWYQQAPGKAPKLLIYAASTLQTGVPSRFSGSGSGTEFTLTINSLQPEDFATYYCQHLNSYPLTFGGGTKVDIKRAA
notes: Formulated as described in WO-A-01/76627; also called Mycogab; Mycograbg
With B1 the Kd [1] was 3270 nM, the koff [1] was 0.00321 s⁻¹ and the kon [1] was 981 M⁻¹ s⁻¹. For the same binder, the Kd [2] was 717 nM, the koff [2] was 0.000267 s⁻¹ and the kon [2] was 373 M⁻¹ s⁻¹. The Kd [3] was 28.6 nM, the koff [3] was 0.000647 s⁻¹ and the kon [3] was 22600 M⁻¹ s⁻¹.
